Two substances from article PMC6367273 can be followed below.

For assay [1], the target named is LPHN1-S (FLAG-tagged splice variant of murine LPHN1 with a truncated intracellular tail) (mouse). The assay can be described thus: immunostaining of cells or tissue; HEK-LPHN1-S, HEK-WT and HEK-Puro cells incubated with FITC-K37-mTCAP-1 (1:400) in medium with HEPES pH 7.4 and 0.1% BSA for 12 h at 4°C, washed, fixed, stained with Cy3-tagged FLAG antibody; confocal microscopy; green pixels (intensity 20-255) per cell.

For assay [2] the target is unchanged.
Assay [3] has the same target. The source holds these as a separate data set.

Take FITC-tagged K37-mTCAP-1 (peptide): the green pixels per cell in assay [1] was 49.5 pixels/cell.

The substance “Mouse TCAP-1 (mTCAP-1), synthetic (peptide)” had a cell height of HEK-LPHN1-S cells treated with 100 nM mTCAP-1 for 60 min against vehicle; no significant change in HEK-WT cells in assay [2] of 39%. This substance returned a f-actin (Phalloidin red pixels per cell) in HEK-LPHN1-S cells treated with 100 nM mTCAP-1 for 60 min against vehicle; no significant change in HEK-WT cells in assay [3] of 343%.
